Measured values as given in patent US20200079876A1 (BIOVERATIV USA, published 2020).
Substitutions are numbered along the chain they refer to.

T1: recombinant human complement component C1s (rhC1s) (human, UniProt P09871 16-688)
T1 sequence (looked up): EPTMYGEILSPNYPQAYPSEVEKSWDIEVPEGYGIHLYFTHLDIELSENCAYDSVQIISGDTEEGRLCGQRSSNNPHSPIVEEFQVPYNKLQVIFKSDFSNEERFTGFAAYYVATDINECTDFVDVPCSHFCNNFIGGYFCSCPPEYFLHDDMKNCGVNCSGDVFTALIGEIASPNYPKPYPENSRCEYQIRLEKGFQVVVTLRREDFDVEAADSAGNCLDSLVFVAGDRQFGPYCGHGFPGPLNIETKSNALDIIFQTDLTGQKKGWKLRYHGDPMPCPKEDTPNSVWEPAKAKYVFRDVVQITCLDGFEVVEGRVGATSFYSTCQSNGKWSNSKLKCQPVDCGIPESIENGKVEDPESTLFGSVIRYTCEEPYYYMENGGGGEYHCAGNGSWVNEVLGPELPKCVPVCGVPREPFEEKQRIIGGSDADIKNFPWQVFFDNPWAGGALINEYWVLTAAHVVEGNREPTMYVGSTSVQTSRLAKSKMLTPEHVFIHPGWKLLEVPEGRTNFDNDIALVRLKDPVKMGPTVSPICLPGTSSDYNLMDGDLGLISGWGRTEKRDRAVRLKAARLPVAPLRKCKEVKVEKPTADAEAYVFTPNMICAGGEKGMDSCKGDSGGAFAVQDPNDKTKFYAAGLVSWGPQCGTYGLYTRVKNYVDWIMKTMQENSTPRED

T2: Pro-C1s
T2 construct: also called purified pro-C1s protein
T2 chain: T1 sequence (looked up)

T3: purified human activated C1s protein, two-chain form (Homo sapiens, UniProt P09871 16-688)
T3 construct: Purified protein bought from EMD Millipore; Biotin-labeled in the clone screen; also called active C1s; native C1s protein
T3 sequence: T1 sequence (looked up)

B1: antibody IPN-M11 (antibody, V domains shown)
VH: QVQLQQSGAELVRPGASVKLSCTASGFNIKDDYIHWVKQRPEQGLEWIGRIDPADDHTKYAPKFQDKATMTADTSSNTACLQLNSLTSEDTAVYYCAIYGSGWAWFPYWGQGTLVSVSA
VL: DIVMTQSPDYLAVSLGQRAPISCKASQSVDYDGDSYMNWYQQKPGQPPKLLIYAASNLEFGIPTRFSGSGFGTDFPLNIHPVEEEDAATYYCQQSNEDPWTFGGGPKLEIK
notes: Mouse monoclonal antibody (NZBW hybridoma)
B2: antibody IPN-M13 (antibody, V domains shown)
VH: B1 VH with Q1E
VL: B1 VL with M4L, P8T, P20T, F60S, T64A, F71S, P76T, P106T
notes: Mouse monoclonal antibody (NZBW hybridoma); Same VL and VH as IPN-M1 and IPN-M3

Assays:
[1] = molecular target: T1, recombinant human complement component …; experiment: cell-based or functional assay
[2] = molecular target: T2, Pro-C1s; experiment: bio-layer interferometry (BLI), kinetic analysis
[3] = molecular target: T3, purified human activated C1s protein, …; experiment: bio-layer interferometry (BLI), kinetic analysis
[4] = molecular target: T1, recombinant human complement component …; experiment: cell-based or functional assay; remark: listed apart in the source

Row | Binder | inhibition of C1s protease activity (relative to nafamostat) [1] | Kd [2] | koff [2] | kon [2] | Kd [3] | koff [3] | kon [3] | Inhibition of C1s Protease Activity (%), single point with clone supernatant, relative to 100 nM nafamostat [4]
1 | B1 | > 50% | 35.2 nM | 0.000329 s⁻¹ | 9330 M⁻¹ s⁻¹ | 0.21 nM | 0.000182 s⁻¹ | 864000 M⁻¹ s⁻¹ | 92%
2 | B2 | > 50% | 15.9 nM | 0.000258 s⁻¹ | 16200 M⁻¹ s⁻¹ | 0.133 nM | 0.000113 s⁻¹ | 851000 M⁻¹ s⁻¹ | 96%
